Residue numbers refer to the chain shown, from its start. Names and notes keep the numbering of the source.

The chains are these.
T1: GST-SVIP (Drosophila SVIP, CG32039), Q8IQC6
T1 chain: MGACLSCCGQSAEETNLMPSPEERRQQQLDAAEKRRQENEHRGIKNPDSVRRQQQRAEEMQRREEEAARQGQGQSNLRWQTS

B1: MBP-VCP^N-D1 (Drosophila VCP, N-terminal and first D1 ATPase domain), Q7KN62 P134L (protein)
chain: MADSKGEDLATAILKRKDRPNRLIVEEAQNDDNSVVSLSQAKMDELQLFRGDTVILKGKRRKETVCIVLSDDTCPDEKIRMNRVVRNNLCVHLSDVVSVQSCPDVKYGKRVRILPIDESTEGVTGNLFEIYLKLYFLEAYRPIHMGDNFIVRAAMRPIEFKVVLTDPEPYCIVAPETVIFCDGDPIKREEEEESLNAVGYDDIGGCRKQLAQIKEMVELPLRHPSLFKAIGVKPPRGILMYGPPGTGKTLIARAVANETGAFFFLINGPEIMSKLAGESESNLRKAFEEAEKNSPAIIFIDEIDAIAPKRDKTHGEVERRIVSQLLTLMDGMKKSSHLIVMAATNRPNSIDPALRRFGRFDREIDIGIPDATGRLEVLRIHTKNMKLHDDVDLEQIAAESHGHVGADLASLCSEAALQQIREKMDLIDLEDDKIDAEVLASLAVTMENFRYAMTKSSPSALRETVVEVPNTTWTDIGGLESVKKELQELVQYPVEHPDKFLKFGMQPSRGVLFYGPPGCGKTLLAKAIANECQANFISVKGPELLTMWFGESEANVRDIFDKARSAAPCVLFFDELDSIAKARGGNVGDAGGAADRVINQILTEMDGMGAKKNVFIIGATNRPDIIDPAILRPGRLDQLIYIPLPDDKSREAILKANLRKSPLAKEVDLTYIAKVTQGFSGADLTEICQRACKLAIRQAIEAEIRREKERAENQNSAMDMDEDDPVPEITSAHFEEAMKFARRSVSDNDIRKYEMFAQTLQQSRGFGQNFRFPGQTGNTSGSGNNLPVNSPGDNGDDDLYS
B2: MBP-VCP^N-D1 (Drosophila VCP, N-terminal and first D1 ATPase domain), Q7KN62 A229E (protein)
chain: B1 chain with L134P, A229E
B3: MBP-VCP^N-D1 (Drosophila VCP, N-terminal and first D1 ATPase domain), Q7KN62 T259A (protein)
chain: B1 chain with L134P, T259A
B4: MBP-VCP^N-D1 (Drosophila VCP, N-terminal and first D1 ATPase domain), Q7KN62 N384H (protein)
chain: B1 chain with L134P, N384H
B5: MBP-VCP^N-D1 (Drosophila VCP, N-terminal and first D1 ATPase domain), Q7KN62 R156C (protein)
chain: B1 chain with L134P, R156C
B6: MBP-VCP^N-D1 (Drosophila VCP, N-terminal and first D1 ATPase domain), Q7KN62 L195W (protein)
chain: B1 chain with L134P, L195W
B7: MBP-VCP^N-D1 (Drosophila VCP, N-terminal and first D1 ATPase domain), Q7KN62 A436S (protein)
chain: B1 chain with L134P, A436S
B8: MBP-VCP^N-D1 (Drosophila VCP, N-terminal and first D1 ATPase domain), Q7KN62 A154R (protein)
chain: B1 chain with L134P, A154R
B9: MBP-VCP^N-D1 (Drosophila VCP, N-terminal and first D1 ATPase domain), Q7KN62 R152H (protein)
chain: B1 chain with L134P, R152H
B10: MBP-VCP^N-D1 (Drosophila VCP, N-terminal and first D1 ATPase domain), Q7KN62 R188Q (protein)
chain: B1 chain with L134P, R188Q

This assay addresses T1, GST-SVIP (Drosophila SVIP, CG32039), …. Briefly: in vitro binding titration assay. To be noted: chain shown with the change;; parent: 0.70 uM.
What is called Kd is the equilibrium constant for the complex coming apart. Turning to B1, the Kd amounted to 21600 nM. As for B2, the Kd is 580 nM. The result for B3 reads 1230 nM.

Consider B4, for which the Kd is 1160 nM. The result for B5 reads 1770 nM; that for B6, 600 nM. With B7, the Kd stood at 600 nM. The result for B8 reads 3610 nM; that for B9, 640 nM; that for B10, 1500 nM.

(Values after article PMC7820495.)
